The target in data set [1] is T1, Integration host factor (IHF) (UniProt P0A6X7;P0A6Y1 2-99;1-94). Description: equilibrium fluorescence titration.
Data set [2] addresses T1, Integration host factor (IHF). Description: equilibrium fluorescence titration, extrapolated.
Data set [3] has the same target. Description: fluorescence lifetime FRET.
The target is the same in data set [4]. The data set is described as follows: fluorescence lifetime FRET. The source holds these as a separate data set.

Where a chain is given by its changes, count along the chain named. Read-outs that look alike come from different tables or passages of the source.

T1 sequence (P0A6X7 2-99, chain 1 of 2): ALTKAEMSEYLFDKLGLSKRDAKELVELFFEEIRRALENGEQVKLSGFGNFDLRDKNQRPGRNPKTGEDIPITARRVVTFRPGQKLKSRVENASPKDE
T1 sequence (P0A6Y1 whole entry, chain 2 of 2): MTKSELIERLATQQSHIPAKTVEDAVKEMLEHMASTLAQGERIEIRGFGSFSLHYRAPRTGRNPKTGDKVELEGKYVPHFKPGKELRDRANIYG

B1: H' (design II) (dsDNA)
DNA 1: GGCCAAAAAAGCATTGCTTATCAATTTGTTGCACC
DNA 2: GGTGCAACAAATTGATAAGCAATGCTTTTTTGGCC
modifications: 3' phosphate link on bottom strand (to dye)
What is called Kd is the constant that tells how readily two partners part at equilibrium. Regarding B1, the Kd in data set [1] is 1500 ± 200 nM.

B2: H' (design I) (dsDNA)
DNA 1: TGGCCAAAAAAGCATTGCTTATCAATTTGTTGCACC
DNA 2: TGGTGCAACAAATTGATAAGCAATGCTTTTTTGGCC
Take B2: the Kd is 0.023 nM in data set [2] and 1900 ± 100 nM in data set [1].

B3: H'44A (design I) (dsDNA)
DNA 1: B2 DNA 1 with T31A
DNA 2: B2 DNA 2 with A7T
Consider B3, for which the binding result in data set [3] is “binds”.

B4: H1 (design II) (dsDNA)
DNA 1: GGCCATGCAGTCACTATGAATCAACTACTTAGACC
DNA 2: GGTCTAAGTAGTTGATTCATAGTGACTGCATGGCC
modifications: 3' phosphate link on bottom strand (to dye)
B4 came in with a Kd in data set [1] of 1990 ± 50 nM.

B5: H1_CTloop (design I) (dsDNA)
DNA 1: TGGCCATGCAGTCACTATGAATCAACTACTTAGACC
DNA 2: TGGTCTAAGTAGTTGATTCATTCTGACTGCATGGCC
In data set [1], B5 gave a Kd of 16 ± 3 nM.

B6: H1 (design I) (dsDNA)
DNA 1: B5 DNA 1
DNA 2: B5 DNA 2 with T22A, C23G
With B6, the binding result in data set [4] is listed as “binds”.

The values are drawn from paper doi:10.1101/382655.
